Key:
human ENTPD2 = biological target: T1, human ENTPD2 (Homo sapiens, UniProt Q9Y5L3); experiment: Biacore (SPR) affinity to human ENTPD2 ECD; format: binding; details: 25° C.
T1 construct: residues 29-462 of human or cyno ENTPD2 were cloned into expression vector; GP67 signal peptide (N); made in house; host or cells: High Five (Trichoplusia ni) insect cells, baculovirus
T1 sequence (Q9Y5L3 29-462): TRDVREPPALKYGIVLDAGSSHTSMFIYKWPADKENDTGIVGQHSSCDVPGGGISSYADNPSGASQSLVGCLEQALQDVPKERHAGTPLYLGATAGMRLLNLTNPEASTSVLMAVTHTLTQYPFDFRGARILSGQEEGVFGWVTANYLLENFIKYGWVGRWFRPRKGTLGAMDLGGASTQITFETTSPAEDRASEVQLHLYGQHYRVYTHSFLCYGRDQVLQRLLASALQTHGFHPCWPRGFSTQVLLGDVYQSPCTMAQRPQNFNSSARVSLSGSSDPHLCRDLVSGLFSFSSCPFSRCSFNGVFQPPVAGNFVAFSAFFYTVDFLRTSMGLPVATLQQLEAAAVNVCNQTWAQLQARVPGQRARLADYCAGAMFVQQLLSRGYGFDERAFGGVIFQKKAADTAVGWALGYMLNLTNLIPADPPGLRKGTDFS
Procedure: (§1) Biacore Screening: Affinity was measured by determining the kinetic rate constants using surface plasmon resonance (SPR) on a Biacore T200 or T100 with the T200 sensitivity upgrade instrument (Biacore, GE Healthcare). Antibodies were captured on CM5 sensor chips (Biacore, GE Healthcare) prepared with a mouse anti-human IgG Fc antibody (ThermoFisher catalogue #05-4200) amine coupled to the surface. […] ENTPD2 analytes were allowed to associate for 180 s and dissociate for up to 1800 s depending on the off-rate of the antibody at a flow rate of 30 μL/min. The running buffer was PBS pH 7.2 (prepared from a Corning 10X stock, cat#46-013-CM)+0.05% Tween 20. Regeneration was accomplished with 30 s injections of 3 or 4 M MgCl2 to remove all the captured antibody and remaining complex from the surface, after which fresh antibody was captured. The raw data were analyzed using Biacore T200 Evaluation Software version 1.0 and fit to a 1:1 binding model, with all parameters set to fit globally except for RI, which was set to fit locally.

H520 cells = experiment: Cross reactivity: FACS binding to H520 cells (ENTPD3 and ENTPD8 expression); parameters: species or system human; details: 50 nM antibody
Procedure: (§2) FACS screening: Specific binding of candidate antibodies to endogenously expressed ENTPD2 was assessed by flow cytometry. Cells were rinsed thoroughly with 1×PBS and treated with Accutase (Millipore #SCR005) to lift from growth plates and resuspended at approximately 1×10^5 cells/90 μL in 1× FACS buffer (2% FBS+0.1% NaN3 in PBS). In a 96-well U-bottom plate, 10 μL of 10× antibody solution in FACS buffer was pre-seeded and 90 μL of cell suspension was added. Cell were incubated for 30 minutes at 4° C., washed 1× with cold PBS and resuspended in 100 μL of 1:500 secondary antibody 1× FACS buffer (Allophycocyanin conjugated F(ab′)2 goat anti-human IgG, Fcγ specific; Jackson Immunoresearch, Cat#109-136-098). After additional incubation for 15 min at 4° C., cells were washed twice with PBS and resuspended in 100 μL of 1×FACS buffer with 4 μg/mL propidium iodide (Life Technologies, Cat#P3566). Geometric mean fluorescence intensity was calculated on live single cells using FlowJo software.
H520 cells were identified as a cancer cell line with ENTPD3 (Ct 25) and ENTPD8 (Ct 26) expression by Taqman and were used for selectivity screening.

Human ENTPD1 = biological target: T2, Human ENTPD1 (Homo sapiens, UniProt P49961); experiment: Cross reactivity: FACS binding to human ENTPD1 expressing NIH/3T3 cells; details: NIH/3T3-ENTPD1 cells, 50 nM antibody
T2 construct: expressed in transfected cells; host or cells: NIH/3T3 (retroviral transduction, FACS-sorted)
T2 sequence (P49961 1-510): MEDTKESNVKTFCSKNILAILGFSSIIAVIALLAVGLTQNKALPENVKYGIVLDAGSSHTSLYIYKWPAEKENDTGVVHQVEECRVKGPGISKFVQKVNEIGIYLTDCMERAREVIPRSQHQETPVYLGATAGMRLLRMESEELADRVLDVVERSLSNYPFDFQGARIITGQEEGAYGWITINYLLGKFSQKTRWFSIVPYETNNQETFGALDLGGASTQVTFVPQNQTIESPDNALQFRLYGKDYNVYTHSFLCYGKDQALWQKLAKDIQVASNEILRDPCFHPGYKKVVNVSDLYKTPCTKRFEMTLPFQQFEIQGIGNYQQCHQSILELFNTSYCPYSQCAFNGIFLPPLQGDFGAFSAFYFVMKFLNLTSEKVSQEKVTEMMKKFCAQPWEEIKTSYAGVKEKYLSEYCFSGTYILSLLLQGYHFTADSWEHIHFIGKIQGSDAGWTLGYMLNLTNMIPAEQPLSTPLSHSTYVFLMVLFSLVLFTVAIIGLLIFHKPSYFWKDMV
Procedure: as §2
(§3) Cross reactivity Human ENTPD1 (NP_001767) expressing NIH/3T3 cells were generated using a retroviral transduction approach. 72 hrs post transduction, engineered cells were stained with the anti-Human CD39/ENTPD1 APC-conjugated Antibody (R&D systems, Minneapolis, Minn.) and live cells that expressed human ENTPD1 were separated from the rest of the population via fluorescence activated cell sorting. […]

mouse ENTPD2 = biological target: T3, mouse ENTPD2 (Mus musculus, UniProt O55026); experiment: Antibody specificity: binding to mouse ENTPD2; details: Mouse ENTPD2
T3 construct: residues 29-462 of mouse or rat ENTPD2 (the extracellular domain); mouse IgK signal peptide (N); His6; made in house; host or cells: FreeStyle 293-F cells, transient transfection
T3 sequence (O55026 29-462): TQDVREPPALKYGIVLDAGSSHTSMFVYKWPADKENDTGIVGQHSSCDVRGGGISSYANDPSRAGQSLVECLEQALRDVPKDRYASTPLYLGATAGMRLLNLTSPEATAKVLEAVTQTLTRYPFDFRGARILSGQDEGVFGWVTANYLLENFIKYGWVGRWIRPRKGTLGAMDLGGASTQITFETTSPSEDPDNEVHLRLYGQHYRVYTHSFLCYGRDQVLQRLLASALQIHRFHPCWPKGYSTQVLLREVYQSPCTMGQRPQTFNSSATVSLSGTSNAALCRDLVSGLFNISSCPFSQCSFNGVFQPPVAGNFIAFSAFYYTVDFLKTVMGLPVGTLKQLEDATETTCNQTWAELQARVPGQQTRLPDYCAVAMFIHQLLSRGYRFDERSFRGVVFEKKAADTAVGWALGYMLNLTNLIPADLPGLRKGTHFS
Description: Antibody specificity for mAbl-mAblO was confirmed. […] Antibodies mAb8, mAb9, and mAb10 show weak affinity to mouse ENTPD2. None of the selected antibodies bind to rat ENTPD2.

[1] = tested on: human ENTPD2 engineered B16LM3 clone B5; experiment: Human ENTPD2 engineered B16LM3 clone B5 model, dose response with anti-PD-1 Ab; format: in vivo
Description: This model was derived from the B16LM3 melanoma model, where endogenous mouse ENTPD2 expression was knocked out via a transient electroporation of CAS9 protein with CRISPR guide RNA sequences against mouse ENTPD2, and human ENTPD2 was overexpressed using a retroviral transduction approach.
Once tumors reached approximately 35-50 mm^3, mice were randomized according to tumor volume into treatment groups (n=8 per group). […] All doses were adjusted to individual mouse body weights.

[2] = tested on: cynomologus (cyno) ENTPD2; experiment: Biacore (SPR) affinity to cyno ENTPD2 ECD; format: binding, cynomolgus monkey; details: 25° C.
Sequence of cynomologus (cyno) ENTPD2 (as listed by the source): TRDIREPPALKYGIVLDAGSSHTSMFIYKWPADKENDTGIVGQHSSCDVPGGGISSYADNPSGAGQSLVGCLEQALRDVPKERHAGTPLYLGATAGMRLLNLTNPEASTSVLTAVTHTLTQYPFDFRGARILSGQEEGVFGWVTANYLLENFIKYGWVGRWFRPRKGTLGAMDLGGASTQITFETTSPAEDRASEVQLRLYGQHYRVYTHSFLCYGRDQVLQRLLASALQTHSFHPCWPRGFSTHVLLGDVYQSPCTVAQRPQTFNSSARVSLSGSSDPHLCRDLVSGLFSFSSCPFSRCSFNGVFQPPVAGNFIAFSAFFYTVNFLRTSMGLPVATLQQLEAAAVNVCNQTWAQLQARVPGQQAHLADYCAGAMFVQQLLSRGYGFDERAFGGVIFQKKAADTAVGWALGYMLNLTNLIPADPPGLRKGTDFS
Procedure: as §1

NIH/3T3 cells = experiment: Cross reactivity: FACS binding to NIH/3T3 control cells; details: 50 nM antibody
Procedure: as §2, §3

[3] = Day 7, mAb 10 mg/kg dosed D1, no anti-PD-1 Ab

B1: mAb6: humanized anti-human ENTPD2 antibody from mAb16; VH SEQ ID NO: 70, VL SEQ ID NO: 74 (antibody, V domains shown)
VH: QVQLQESGPGLVKPSQTLSLTCTVSGYSITSGYYWNWIRQHPGKGLEWMGYISYDADNNYNPSLKNRITISRDTSKNQFSLKLSSVTAADTAVYYCAGGYYRYGLGSYSGSYYYVMDYWGQGTTVTVSS
VL: DTQMTQSPSSLSVSVGDRATITCKASQSVDYEGHSYMNWYQQKPGKAPKLLIYAASNLESGVPSRFSGSGSGTDFTLTISSVQPEDFATYYCQQSNEDPPTFGGGTKLEIK
B1 was tested, and the ka (human ENTPD2) was 350000 M⁻¹ s⁻¹, the kd (human ENTPD2) was 0.00026 s⁻¹ and the “Apparent FACS binding at 50 nM” value (H520 cells) was “No binding”. For the same molecule, the “Apparent FACS binding at 50 nM” value (Human ENTPD1) was “No binding”, the “BIACore KD” value (mouse ENTPD2) was “No binding” and the ΔT/ΔC ([1]; 0.1 mg/kg i.v. day 1, combination with anti-PD-1 Ab fixed dose 10 mg/kg, Day 7) was 41.0%. For the same molecule, the ΔT/ΔC ([1]; 1 mg/kg i.v. day 1, combination with anti-PD-1 Ab fixed dose 10 mg/kg, Day 7) was 27.3%, the ΔT/ΔC ([1]; 10 mg/kg i.v. day 1, combination with anti-PD-1 Ab fixed dose 10 mg/kg, Day 7) was 29.2% and the “Host Response Survival (alive/total)” value [1, 3] was 8/8. The “Host Response Δ body weight” value [1, 3] was −0.1%, the “Tumor Response ΔT/ΔC” value [1, 3] was 60.0% and the anti-tumor efficacy ([1]; as single agents, i.v. day 1) was “No significant anti-tumor efficacy”. For the same molecule, the ka [2] was 290000 M⁻¹ s⁻¹, the kd [2] was 0.01 s⁻¹ and the “Apparent FACS binding at 50 nM” value (NIH/3T3 cells) was “No binding”.

— US20220348651A1, “ENTPD2 ANTIBODIES, COMBINATION THERAPIES, AND METHODS OF USING THE ANTIBODIES AND COMBINATION THERAPIES” (Novartis AG, priority 2019, published 2022)
